Target: human AXL (full length) (human) (UniProt P30530)
Assay: flow cytometry; A431 cells pre-incubated with 10 µg/mL Gas6

Chain of UniProt P30530 (P30530 26-894 limits assumed): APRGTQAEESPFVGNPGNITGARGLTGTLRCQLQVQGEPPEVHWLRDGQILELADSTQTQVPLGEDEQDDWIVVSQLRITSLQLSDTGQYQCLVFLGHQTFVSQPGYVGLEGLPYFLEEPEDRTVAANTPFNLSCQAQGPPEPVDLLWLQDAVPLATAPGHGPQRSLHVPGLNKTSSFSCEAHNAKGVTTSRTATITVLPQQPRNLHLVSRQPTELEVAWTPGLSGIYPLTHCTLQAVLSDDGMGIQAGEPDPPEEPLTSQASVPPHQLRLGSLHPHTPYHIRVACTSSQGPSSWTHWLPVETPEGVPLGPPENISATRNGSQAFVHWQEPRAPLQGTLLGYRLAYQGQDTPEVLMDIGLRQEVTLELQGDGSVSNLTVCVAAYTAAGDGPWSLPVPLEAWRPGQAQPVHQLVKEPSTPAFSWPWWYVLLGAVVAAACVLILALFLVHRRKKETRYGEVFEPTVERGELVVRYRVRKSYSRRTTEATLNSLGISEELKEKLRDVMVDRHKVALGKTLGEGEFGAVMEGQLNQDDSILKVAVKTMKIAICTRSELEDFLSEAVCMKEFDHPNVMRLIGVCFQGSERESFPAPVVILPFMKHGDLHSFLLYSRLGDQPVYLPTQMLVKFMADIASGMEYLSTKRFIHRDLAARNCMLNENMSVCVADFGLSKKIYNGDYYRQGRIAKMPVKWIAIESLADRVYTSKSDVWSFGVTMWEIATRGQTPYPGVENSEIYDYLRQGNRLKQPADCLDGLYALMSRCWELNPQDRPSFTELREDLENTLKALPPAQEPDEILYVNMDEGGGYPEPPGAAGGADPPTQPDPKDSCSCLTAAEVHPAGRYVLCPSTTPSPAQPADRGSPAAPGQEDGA

B1: IgG1-YW327.6S2 (antibody, from another filing, V domains shown)
VH: EVQLVESGGGLVQPGGSLRLSCAASGFSLSGSWIHWVRQAPGKGLEWVGWINPYRGYAYYADSVKGRFTISADTSKNTAYLQMNSLRAEDTAVYYCAREYSGWGGSSVGYAMDYWGQGTLVTVSS
VL: DIQMTQSPSSLSASVGDRVTITCRASQDVSTAVAWYQQKPGKAPKLLIYSASFLYSGVPSRFSGSGSGTDFTLTISSLQPEDFATYYCQQSYTTPPTFGQGTKVEIK
  fold change of EC50 with Gas6 pre-incubation against without Gas6: 21 fold
  maximal binding in presence of Gas6 (% of binding in absence of Gas6): 19%

— US20190030180A1
